Data taken from patent US20260201035A1 (published 2026).

Experiments:
Assay in all cases: fluorescence microscopy, LentiX cells co-expressing Lck (FIG. 38)
[1] = biological target: T1, GFP-tagged PD1, F223/Y248 PD1 (UniProt Q15116 25-288)
T1 construct: whole, on cells; In LentiX cells co-expressing Lck; not shown: GFP tag

[2] = biological target: T2, GFP-tagged PD1, wildtype PD1 (Y223/Y248) (UniProt Q15116 25-288, tyrosine phosphorylation by co-expressed Lck (implied, not measured in this experiment))
T2 construct: whole, on cells; In LentiX cells co-expressing Lck; not shown: GFP tag

[3] = biological target: T3, GFP-tagged PD1, Y223/F248 PD1 (UniProt Q15116 25-288)
T3 construct: whole, on cells; In LentiX cells co-expressing Lck; not shown: GFP tag

[4] = biological target: T4, GFP-tagged PD1, F223/F248 PD1 (UniProt Q15116 25-288)
T4 construct: whole, on cells; In LentiX cells co-expressing Lck; not shown: GFP tag

binding result [1]: binds
binding result [2]: binds
binding result [3]: binds
binding result [4]: binds
B1: mCherry-tagged Binder-NT7 (designed binder)
chain: ERFDSLTDLVEHYKKNPMVETLGTVLQLKQPLGGSGGGWFHGHLSGKEAEKLLTEKGKHGSFLVRESQSHPGDFVLSVRTGDDKGESNDGKSKVTHVMIRCQELKYDVGGGGGSQLQESGGGLVQAGGSLRLSCAASGYIFSRWYMGWYRQAPGKEREFVAGIDQGSITYYADSVKGRFTISRDNAKNTVYLQMNSLKPEDTAVYYCAAVAWAGYPWYYKHAYWGQGTQVTVSS
notes: Expressed in LentiX cells co-expressing Lck; not shown: mCherry tag
